The source of these data is US12472152B2, “Molecular entrapment via homopolymer self-assembly” (Northwestern University, priority 2019, dated 2025).

The nature of data set [1]: Loading experiments: encapsulation efficiency during PPSU20 self-assembly (fluorescence of supernatant). The data set is classed as physicochemical. On the procedure: Loading experiments. For the loading of Nile red, nanogels were prepared using pure water and Nile red-containing (0.1 mg/mL) DMSO solutions of PPSU20. For the loading of water-soluble drugs, aqueous solutions of FITC (0.05 mg/mL), doxorubicin hydrochloride (1 mg/mL), dextran (1 mg/mL), albumin (various concentrations), GFP (0.2 mg/mL), RNA (0.2 mg/mL), DNA (0.2 mg/mL), and DMSO solutions of PPSU20 (25 mg/mL) were used. Typically, 100 μL of the corresponding aqueous solution were mixed stepwise (10 μL/step or 100 μL/step) with 50 μL of PPSU20 solution under vortex, then another 400 μL of water was added. After centrifugation at 16000×g for 10 min, fluorescence of the supernatant was measured and the encapsulation efficiencies were calculated.

A short description of data set [2]: PPSU nanogel biodistribution and toxicity after subcutaneous injection. The data set is classed as in vivo. The note with it: mice, s.c. injection, 48 h, NIRF/IVIS. As to the method:
Assessment of PPSU NBM biodistribution and toxicity: Preliminary assessment of vesicular PPSU nanogel biodistribution 48 h after subcutaneous (s.c.) injection (relevant for vaccination) was performed using near infrared fluorescence (NIRF) agent cardiogreen (ICG) as previously published by the Scott lab^1.

A short description of data set [3]: Solubility tests using PPSU20 crystals in water and common organic solvents. The data set is classed as physicochemical. The note with it: in words. From the text: PPSU can be synthesized from complete oxidation of poly(propylene sulfide) (PPS) (14, 15), which is known for its hydrophobic—hydrophilic transition upon oxidation (16-18). However, complete oxidation of PPS had not been previously achieved, since standard oxidation of PPS generates random copolymers of poly(propylene sulfoxide)-co-poly(propylene sulfone) (19). We successfully synthesized PPSU20 (20 sulfones, FIG. 5) using an atypically high concentration of H2O2. Highly concentrated H2O2 was generated in situ upon vacuum evaporation during the oxidizing reaction. […] Given that the chemical structure of PPSU (FIG. 1a) is characterized by a positively charged backbone with negatively charged pendent oxygen atoms (20), electrostatic repulsion among oxygen atoms (21) was expected to result in weak inter- and intra-chain associations.

Data set [4] in a line: Adsorption of FITC-BSA by preformed PPSU20 vesicular nanogels. The data set is classed as physicochemical. The note with it: fluorescence in 0.2 N NaOH. As to the method:
PPSU20 vesicular nanogels were prepared by mixing 100 μL of water or 100 μL of aqueous FITC-BSA (1.0 mg/mL) solution with 100 μL of PPSU20 solution (25 mg/mL in DMSO) under vortex, followed by the addition of 1000 μL of water. Nanogels were collected by centrifugation and purified by 2 rounds of resuspension and centrifugation in 1000 μL of water. The preformed blank vesicular nanogels were further incubated with 100 μL of aqueous FITC-BSA (1.0 mg/mL) solution overnight, giving FITC-BSA-adsorbed nanogels after removal of free FITC-BSA by three rounds of centrifugation and resuspension in water. Blank nanogels, FITC-BSA-loaded nanogels, and FITC-BSA-adsorbed nanogels were resuspened in 1000 μL of water for fluorescence measurements or as the stocking solutions for fluorescence quantitative analysis in sodium hydroxide solution (0.2 N).

For a further data set, the target named is T1, trypsin protease (Sus scrofa, UniProt P00761).
T1 construct: purchased Promega
Description: Trypsin digestion of FITC-BSA-loaded PPSU20 vesicular nanogels. Format: biochemical. The note with it: overloaded 10 mg/mL sample; trypsin 2 μg/mL, 24 h, 37° C. As to the method: Trypsin digestion of FITC-BSA-loaded PPSU20 vesicular nanogels. DMSO solutions of PPSU20 (200 μL, 25 mg/mL) were hydrated using 800 μL of aqueous FITC-BSA solutions (0, 0.1, 1.0, 10.0 mg/mL). DMSO was removed by dialysis after self-assembly. Negatively stained FITC-BSA-loaded PPSU20 vesicular nanogels were characterized by TEM. After removal of unloaded FITC-BSA by three rounds of centrifugation and resuspension in phosphate-buffered saline, FITC-BSA-loaded PPSU20 vesicular nanogels were subjected to digestion with trypsin protease (2 μg/mL; Trypsin Gold, Promega) for 24 h at 37° C., 80 rpm. Undigested FITC-BSA-loaded PPSU20 vesicular nanogels (i.e. no protease treatment) were included as a control. After 24 h incubation with trypsin, FITC fluorescence (Ex=490 nm, Em=525 nm) was quantified in triplicate using a SpectraMax M3 microplate reader (Molecular Devices). The percentage increase in FITC fluorescence (i.e., 100×(F(+)−F(−))/F(−)) after proteolysis was calculated, where F(+) is the fluorescence after protease treatment and F(−) is referred to the fluorescence in the absence of protease treatment.

Data set [5] is described as follows: PPSU20 vesicular nanogels formed with a concentration series of FITC-BSA (DLS, zeta potential, encapsulation). Format: physicochemical.
[6] abbreviates: 10 μL/step, mass ratio (drug/PPSU20) 0.08.
Setting [7] is: 100 μL/step, mass ratio (drug/PPSU20) 0.08.
[8] abbreviates: 10 μL/step, mass ratio (drug/PPSU20) 0.004.
Where [9] appears, read: 100 μL/step, mass ratio (drug/PPSU20) 0.004.

T1 sequence (P00761 9-231): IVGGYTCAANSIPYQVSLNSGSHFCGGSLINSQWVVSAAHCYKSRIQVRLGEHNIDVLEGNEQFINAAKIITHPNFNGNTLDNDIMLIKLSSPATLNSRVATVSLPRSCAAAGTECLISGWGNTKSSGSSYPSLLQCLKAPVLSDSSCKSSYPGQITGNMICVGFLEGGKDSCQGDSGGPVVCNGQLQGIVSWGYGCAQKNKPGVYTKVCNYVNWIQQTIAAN

`COc1cccc2c1C(=O)c1c(O)c3c(c(O)c1C2=O)C[C@@](O)(C(=O)CO)C[C@@H]3O[C@H]1C[C@H](N)[C@H](O)[C@H](C)O1.Cl` [DOX/HCl, doxorubicin hydrochloride]: the Encapsulation efficiency in data set [1] (setting [6]) was greater than 96%; in data set [1] (setting [7]) it was greater than 97%.
As to `CC1(C)C(/C=C/C=C/C=C/C=C2\N(CCCCS(=O)(=O)[O-])c3ccc4ccccc4c3C2(C)C)=[N+](CCCCS(=O)(=O)[O-])c2ccc3ccccc3c21.[Na+]` [ICG], the “biodistribution (organs)” value in data set [2] is “heart, brain and kidneys”.
As to `CCN(CC)c1ccc2nc3c4ccccc4c(=O)cc-3oc2c1` [Nile red], the results for the Encapsulation efficiency in data set [1] (setting [8]) and in data set [1] (setting [9]) were greater than 96% and greater than 98%, respectively.
In the case of `CS(C)(=O)=O` [dimethylsulfone], the Solubility in water result in data set [3] is on record as “good water-solubility”.
As for “Albumin: FITC-labeled albumin (FITC-BSA), a model protein; Table 1 entries 5 to 8”, the Encapsulation efficiency in data set [1] (setting [6]) is greater than 99%; in data set [1] (10 μL/step, mass ratio (drug/PPSU20) 0.4), greater than 99%; in data set [1] (10 μL/step, mass ratio (drug/PPSU20) 0.8), greater than 96%; in data set [1] (10 μL/step, mass ratio (drug/PPSU20) 1.2), 83%; in data set [1] (setting [7]), greater than 99%; in data set [1] (100 μL/step, mass ratio (drug/PPSU20) 0.4), greater than 99%. Also, the Encapsulation efficiency is greater than 96% in data set [1] (100 μL/step, mass ratio (drug/PPSU20) 0.8); 80% in data set [1] (100 μL/step, mass ratio (drug/PPSU20) 1.2); 97.8% in data set [4] (FITC-BSA-loaded vesicles, Em=518 nm). The “encapsulation capacity (w/w)” value in data set [1] (Table 1, entry 5 to 7) was “up to 80%”. Further, the “encapsulation of protein molecules from aqueous solutions” value in data set [1] (Table 1, entry 5 to 7) is roughly 100%. The EE entry is reported as “Over 80%” in data set [1] (nanoparticles contained 20% more protein than polymer by mass (Table 1, entry 8)); 45% in data set [5] (in the presence of 10 mg/mL of protein); “approximately 100%” in data set [5] (loading of FITC-BSA at 0.1 mg/mL); “approximately 100%” in data set [5] (loading of FITC-BSA at 1.0 mg/mL). The molecule also gave an adsorption efficiency in data set [4] (preformed blank vesicles incubated with FITC-BSA overnight) of 6.0%. Also, the “encapsulated FITC-BSA accessible to cleavage” value with trypsin protease was 30-35%. The “protein by mass in nanogels” value in data set [5] (10 mg/mL of protein, 3.6 mg FITC-BSA/5 mg PPSU) was found to be 72%.
In the case of Dextran, the Encapsulation efficiency in data set [1] (setting [6]) and in data set [1] (setting [7]) was greater than 96% each time.
Regarding fluorescein isothiocyanate [FITC], the Encapsulation efficiency in data set [1] (setting [8]) and in data set [1] (setting [9]) was greater than 99% each time.
